# Measurements taken from the RNAGym collection of RNA variant scans (doi:10.1073/pnas.2313332121).
# Fewer inactive variants are shown than the library holds.
# B1: TPR 5TU (parent)
# chain: GGAUCUUCUCGAUCUAACAAAAAAGACAAAUCUGCCACAAAGCUUGAGAGCAUCUUCGGAUGCAGAGGCGGCAGCCUUCGGUGGCGCGAUAGCGCCAACGUUCUCAACUAUGACACGCAAAACGCGUGCUCCGUUGAAUGGAGUUUAUCAUG
# Variants of: B1
# Test: polymerase ribozyme fitness, log enrichment relative to wild type (log ratio); higher = more active; in vitro selection for triplet polymerase activity
# Method in brief: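 Mutant libraries for each subunit of a heterodimeric triplet polymerase ribozyme were made by PCR and then transcribed. Each library underwent one round of in vitro selection in triplicate: annealing with a biotinylated primer, the partner subunit and triplets, frozen incubation at −7 °C, gel excision of extended constructs, streptavidin-bead capture and RT-PCR. Input and output libraries were Illumina-sequenced, and only genotypes with ≥10 input reads and ≥1 read per output were kept. Fitness is the logarithm, base 2, of genotype enrichment over wild-type enrichment, computed from inverse-variance-weighted replicate averages.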
row,Variant,polymerase ribozyme fitness (log ratio)
1,A47C G124U,-1.09
2,A47C C96A C123G U151G,≤ -4.2
3,U44A C95U C96G A120C,≤ -4.2
4,C43U C85U G88U C96A C123G G124C C129U G133C U139C,≤ -4.2
5,G46U C69U C96A A110U A121C,≤ -4.2
6,A47C C57A C105A G126A,-3.51
7,G42C A49C,≤ -4.2
8,A47U A49G A98G U101A,≤ -4.2
9,G46A G143C,-3.81
10,C43U U82G U101G,-4.04
11,C43G G88A C95U C105A,≤ -4.2
12,C43U A89U G94U C105G C132A U151C,≤ -4.2
13,G42C C54A A64C U77A G83C G126A U145A,≤ -4.2
14,A47G U90A,-3.82
15,G46A C96U U134G A138G,≤ -4.2
16,U44A U144G U151G,≤ -4.2
17,U44A G50A U77A U78A C93G A115C G133A G141A,-4.14
18,C43G G86C A137G,≤ -4.2
19,A47C C75G U77A G88A A106U,≤ -4.2
20,A47C C85U C118U U130A,-3.62
21,G42C A49U C63U,-4.12

row,Variant,polymerase ribozyme fitness (log ratio)
1,G42C C51U C103G,≤ -4.2
2,C43U C93G U109G,≤ -4.2
3,U44G G50A C57G C72G C114A G140C,≤ -4.2
4,A47G G50C G71C G94A U134C,≤ -4.2
5,A47C C57A,-0.176
6,C43G A49C C76A G84A C105G,≤ -4.2
7,G46U A120C,-0.32
8,A47G G50A A52U C63A A142C,≤ -4.2
9,G46U C99U,-1.06
10,C43A G94C G143U,≤ -4.2
11,G42U A60G U139C U148A,-4.08
12,U45G C75G C87A A120C G141C,≤ -4.2
13,C43A U44A A91U G141U A150C,≤ -4.2
14,G46A A47C U53A C57U A107U G117A,≤ -4.2
15,A47C C51U C54U A73C A122U,≤ -4.2
16,G46C C93U,-2.47
17,G46C G74C C87A,≤ -4.2
18,G42C G86U U109G G141U,≤ -4.2
19,A47C U53A C95U G136C,-3.62
20,C43U C63U A73C U78A G84U U90G C93U A119U A142U,≤ -4.2
21,A47C G68A C96G C99A,≤ -4.2

row,Variant,polymerase ribozyme fitness (log ratio)
1,U44G A49U G84A U90G C131U U135G G136A,≤ -4.2
2,A47C C51G C87U A89U A107G,≤ -4.2
3,G46A C85U A89G C96A A106C U145C U146G,≤ -4.2
4,U44A A49U C72G C79G G92U A150G,≤ -4.2
5,A47C C63A G83A,-1.37
6,U44C A89U C103A A120U,≤ -4.2
7,A47C C57G G58C,0.275
8,U45A A49G G83A C85U C99G U104C,≤ -4.2
9,C43U U56A A66C C75A C85G,≤ -4.2
10,A47C U151G G152A,-4.19
11,A47C U61A,-3.21
12,A47G C51G C76U C87U U104G A107U U151C,≤ -4.2
13,A47C U56G A91U C96G C118U A122C C131U U139C U148A,≤ -4.2
14,G42C U53A C79U C85G A89U C125U,≤ -4.2
15,A47C C57U C79A G94A U151G,≤ -4.2
16,A47U A52G U144G,0.507
17,C43G C95U C96A,-4.15
18,A47C G141C U148G,≤ -4.2
19,U45A C114U,-4.01
20,U45G G94A A137G,-2.23
21,U44A C76A A91G,≤ -4.2

row,Variant,polymerase ribozyme fitness (log ratio)
1,G46A G59U,0.917
2,A47G G59C U61A G92C G141A U148C,≤ -4.2
3,A47G A147U,0.466
4,U45G C57A,0.374
5,G46C U77G A142C,≤ -4.2
6,C43G U44A G58A G88U C95U U135G,≤ -4.2
7,U45A C79G G84C C93G U102G,≤ -4.2
8,U44A U134A,≤ -4.2
9,G42C U53A C99U,≤ -4.2
10,G42C G83A A106U,≤ -4.2
11,U45A G46C A98U,≤ -4.2
12,C43G A49C C51U G62A G88A A91G C125U A137G,≤ -4.2
13,C43U G74C C93G U146A,≤ -4.2
14,G46U U61A G92U C96A A137G,≤ -4.2
15,A47G C93A C131U U134C,-0.603
16,A47G G80A,-0.0419
17,U45G C116U,0.00932
18,U44C G86U C103G G140A U148A,≤ -4.2
19,G46A U56A U82C C93A A107G C125U G136U,≤ -4.2
20,U45G G50A C87A C103U G124A,≤ -4.2
